Laboratory results reported in US20200096514.

T1: ELA-Q (not fully specified)
T1 chain: GAAFAGK

T2: LAS-Q (not fully specified)
T2 chain: GLGGGAGK

B1: recombinant mouse neutrophil elastase (protein)
chain: SEIVGGRPARPHAWPFMASLQRRGGHFCGATLIARNFVMSAAHCVNGLNFRSVQVVLGAHDLRRQERTRQTFSVQRIFENGFDPSQLLNDIVIIQLNGSATINANVQVAQLPAQGQGVGDRTPCLAMGWGRLGTNRPSPSVLQELNVTVVTNMCRRRVNVCTLVPRRQAGICFGDSGGPLVCNNLVQGIDSFIRGGCGSGLYPDAFAPVAEFADWINSIIRSHNDHLLTHPKDREGRTN
B2: LasA protease of Pseudomonas aeruginosa (secreted, in culture supernatants) (protein)
chain: APPSNLMQLPWRQGYSWQPNGAHSNTGSGYPYSSFDASYDWPRWGSATYSVVAAHAGTVRVLSRCQVRVTHPSGWATNYYHMDQIQVSNGQQVSADTKLGVYASNINTALCEGGSSTGPHLHFSLLYNGAFVSLQGASFGPYRINVGTSNYDNDCRRYYFYNQSAGTTHCAFRPLYNPGLAL

Experiments:
ELA-Q = biological target: T1, ELA-Q
LAS-Q = biological target: T2, LAS-Q

Protein | reversal of FRET-quenched fluorescent signal (cleavage) (ELA-Q) | reversal of FRET-quenched fluorescent signal (cleavage) (LAS-Q) | cleavage of LAS-Q by P. aeruginosa culture supernatants (fluorescence) set against LasA content by Western blot (LAS-Q)
B1 | ELA-Q and-to a lesser extent, LAS-Q-are each cleaved by neutrophil elastase | ELA-Q and-to a lesser extent, LAS-Q-are each cleaved by neutrophil elastase | –
B2 | – | – | the non-cleaving strains lacked LasA in their supernatant, whereas supernatant from the substrate-cleaving strains contained substantial levels of LasA protein
